Patent publication US6821947

Target: human recombinant endorepellin tagged with His6, from 293-EBNA cells (human) (UniProt P98160)
Assay: cell-based or functional assay

Sequence of UniProt P98160 (P98160 3687-4391 limits assumed): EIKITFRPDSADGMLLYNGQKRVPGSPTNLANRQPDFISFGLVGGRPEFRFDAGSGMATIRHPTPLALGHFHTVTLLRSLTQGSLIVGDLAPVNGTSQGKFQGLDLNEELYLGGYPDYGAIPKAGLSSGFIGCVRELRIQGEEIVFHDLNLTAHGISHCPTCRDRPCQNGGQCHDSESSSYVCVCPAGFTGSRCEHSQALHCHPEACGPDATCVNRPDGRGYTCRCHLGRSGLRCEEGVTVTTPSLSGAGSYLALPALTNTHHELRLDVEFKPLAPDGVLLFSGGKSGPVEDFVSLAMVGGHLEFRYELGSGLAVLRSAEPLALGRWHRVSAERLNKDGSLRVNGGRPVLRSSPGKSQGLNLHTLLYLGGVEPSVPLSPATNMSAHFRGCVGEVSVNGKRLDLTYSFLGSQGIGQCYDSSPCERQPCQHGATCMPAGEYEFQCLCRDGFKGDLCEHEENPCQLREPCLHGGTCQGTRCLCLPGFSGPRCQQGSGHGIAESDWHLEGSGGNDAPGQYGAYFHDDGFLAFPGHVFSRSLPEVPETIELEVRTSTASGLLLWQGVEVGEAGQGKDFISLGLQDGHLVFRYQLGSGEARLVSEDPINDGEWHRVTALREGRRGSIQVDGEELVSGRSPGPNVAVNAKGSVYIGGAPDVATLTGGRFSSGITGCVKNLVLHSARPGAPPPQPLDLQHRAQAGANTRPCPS

“recombinant endostatin purified from Pichia pastoris yeast cells (Calbiochem-Novabiochem)” was tested, and the VEGF-induced HUVEC migration through fibrillar collagen (molar ratio of endostatin/endorepellin) was 1.
